# T1: mouse FcγRII (mouse, UniProt P08101 30-210)
# T1 construct: also called mFcγRII; mFcgRII
# T1 sequence: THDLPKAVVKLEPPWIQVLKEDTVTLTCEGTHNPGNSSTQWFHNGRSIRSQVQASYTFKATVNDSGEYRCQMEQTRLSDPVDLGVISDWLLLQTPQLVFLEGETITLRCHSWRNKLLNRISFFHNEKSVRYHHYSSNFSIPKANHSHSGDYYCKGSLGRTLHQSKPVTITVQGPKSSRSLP
# T2: mouse FcγRIII (mouse, UniProt P08508 31-215)
# T2 construct: also called mFcγRIII; mFcgRIII
# T2 chain: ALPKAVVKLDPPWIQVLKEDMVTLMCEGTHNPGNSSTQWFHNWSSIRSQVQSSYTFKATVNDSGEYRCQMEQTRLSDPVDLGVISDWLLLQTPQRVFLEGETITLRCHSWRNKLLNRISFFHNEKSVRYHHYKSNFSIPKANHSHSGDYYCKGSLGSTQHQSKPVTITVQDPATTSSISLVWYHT
# T3: mouse FcγRII extracellular domain, C-terminal His tag (mouse, UniProt P08101 30-210)
# T3 construct: Whole entry named; also called mFcγRII; mFcgRII
# T3 sequence: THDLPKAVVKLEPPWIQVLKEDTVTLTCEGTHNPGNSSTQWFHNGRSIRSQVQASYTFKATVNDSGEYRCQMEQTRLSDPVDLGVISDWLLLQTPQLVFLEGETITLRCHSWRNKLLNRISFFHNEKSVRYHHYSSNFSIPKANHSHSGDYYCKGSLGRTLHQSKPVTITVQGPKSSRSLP
# T4: mouse FcγRIII extracellular domain, C-terminal His tag (mouse, UniProt P08508 31-215)
# T4 construct: Whole entry named; also called mFcγRIII; mFcgRIII
# T4 chain: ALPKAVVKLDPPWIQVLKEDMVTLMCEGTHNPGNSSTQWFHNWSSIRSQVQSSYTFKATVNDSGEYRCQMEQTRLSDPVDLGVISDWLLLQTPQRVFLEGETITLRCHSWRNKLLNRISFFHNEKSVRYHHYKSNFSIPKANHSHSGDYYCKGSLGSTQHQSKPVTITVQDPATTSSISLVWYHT
# Columns and labels:
# mouse FcγRII [1] = biological target: T1, mouse FcγRII; assay: SPR Biacore T200, KD ratio; upper end tied to MB397 by Table 8
# mouse FcγRII [2] = biological target: T1, mouse FcγRII; assay: SPR Biacore T200, KD ratio
# mouse FcγRII [3] = biological target: T1, mouse FcγRII; assay: SPR Biacore T200, KD ratio; lower end tied to MB425 by Table 8
# mouse FcγRIII [4] = biological target: T2, mouse FcγRIII; assay: SPR Biacore T200
# Excerpt: (§1) The antibody H chain variable region used was the variable region H237 (SEQ ID NO: 1) of the H chain VH3-IgG1 of the anti-IL-6 receptor antibody Fv4-IgG1 described in WO2009/125825. The antibody L chain commonly used was the L chain MRAL-k0 (SEQ ID NO: 2) of the anti-IL-6 receptor antibody tocilizumab. The aforementioned 11 variants were used as templates to introduce the alteration. These variants were expressed and purified by the method of Reference Example 1 and evaluated for their binding to mFcγRII and mFcγRIII by the method of Reference Example 2 using Biacore T200.
# Each altered antibody was analyzed for its interaction with each Fcγ receptor prepared above using Biacore T100 (GE Healthcare Japan Corp.), Biacore T200 (GE Healthcare Japan Corp.), Biacore A100, or Biacore 4000. The running buffer used was HBS-EP+ (GE Healthcare Japan Corp.). The assay temperature was set to 25° C. […]
# In order to calculate the KD value of each altered antibody for FcγR, kinetic analysis was conducted according to the following method: first, the antibody of interest was captured onto any of these chips and allowed to interact with mFcγR diluted with a running buffer. […] From these values, the dissociation constant KD (mol/L) was calculated.
# mouse FcγRII [5] = biological target: T1, mouse FcγRII; assay: SPR Biacore T200, KD ratio; upper end tied to MB682 by Table 20
# mouse FcγRII [6] = biological target: T1, mouse FcγRII; assay: SPR Biacore T200, KD ratio; lower end tied to MB684 by Table 20
# [7] = biological target: T3, mouse FcγRII extracellular domain, …; assay: SPR (Biacore T200); KD of H237-mIgG1/MRAL-k0 / KD of variant
# Excerpt: as §1, with “7” for “11”, “substitute the amino acids at the alteration sites by the amino acids before” for “introduce”
# (§2) Each altered antibody was analyzed for its interaction with each Fcγ receptor prepared above using Biacore T100 (GE Healthcare Japan Corp.), Biacore T200 (GE Healthcare Japan Corp.), Biacore A100, or Biacore 4000. The running buffer used was HBS-EP+ (GE Healthcare Japan Corp.). The assay temperature was set to 25° C. The sensor chips used were chips prepared by immobilizing Protein L (ACTIGEN or BioVision) onto Series S Sensor Chip CM5 (GE Healthcare Japan Corp.) or Series S Sensor Chip CM4 (GE Healthcare Japan Corp.) by the amine coupling method.
# [8] = biological target: T4, mouse FcγRIII extracellular domain, …; assay: SPR (Biacore T200)
# Excerpt: as §1, with “7” for “11”, “substitute the amino acids at the alteration sites by the amino acids before” for “introduce”
# as §2
# mouse FcγRII [9] = biological target: T1, mouse FcγRII; assay: told of the L104-mk1 form; SPR was run on the MRAL-k0 form
# mouse FcγRIII [10] = biological target: T2, mouse FcγRIII; assay: as above
binder,measurement,setting,value
"H237-MB397/MRAL-k0 (antibody, mouse IgG1, kappa, mIgG1 with T230E/V231T/P232Y/S238E/S239D; also called template T4; copies: 2 + 2) heavy: QVQLQESGPGLVKPSETLSLTCAVSGHSISHDHAWSWVRQPPGEGLEWIGFISYSGITNYNPSLQGRVTISRDNSKNTLYLQMNSLRAEDTAVYYCARSLARTTAMDYWGEGTLVTVSSAKTTPPSVYPLAPGSAAQTNSMVTLGCLVKGYFPEPVTVTWNSGSLSSGVHTFPAVLQSDLYTLSSSVTVPSSTWPSETVTCNVAHPASSTKVDKKIVPRDCGCKPCICETYEVEDVFIFPPKPKDVLTITLTPKVTCVVVDISKDDPEVQFSWFVDDVEVHTAQTQPREEQFNSTFRSVSELPIMHQDWLNGKEFKCRVNSAAFPAPIEKTISKTKGRPKAPQVYTIPPPKEQMAKDKVSLTCMITDFFPEDITVEWQWNGQPAENYKNTQPIMDTDGSYFVYSKLNVQKSNWEAGNTFTCSVLHEGLHNHHTEKSLSHSPGK light: not shown",relative mFcγRII-binding activity (H237-mIgG1/MRAL-k0 = 1),mouse FcγRII [1],600 fold
same,relative mFcγRII-binding activity (H237-mIgG1/MRAL-k0 = 1),mouse FcγRII [2],> 500 fold
"H237-MB425/MRAL-k0 (antibody, mouse IgG1, kappa, mIgG1 with T230I/V231P/P232A/S238E/S239D; also called template T7; copies: 2 + 2) heavy: QVQLQESGPGLVKPSETLSLTCAVSGHSISHDHAWSWVRQPPGEGLEWIGFISYSGITNYNPSLQGRVTISRDNSKNTLYLQMNSLRAEDTAVYYCARSLARTTAMDYWGEGTLVTVSSAKTTPPSVYPLAPGSAAQTNSMVTLGCLVKGYFPEPVTVTWNSGSLSSGVHTFPAVLQSDLYTLSSSVTVPSSTWPSETVTCNVAHPASSTKVDKKIVPRDCGCKPCICIPAEVEDVFIFPPKPKDVLTITLTPKVTCVVVDISKDDPEVQFSWFVDDVEVHTAQTQPREEQFNSTFRSVSELPIMHQDWLNGKEFKCRVNSAAFPAPIEKTISKTKGRPKAPQVYTIPPPKEQMAKDKVSLTCMITDFFPEDITVEWQWNGQPAENYKNTQPIMDTDGSYFVYSKLNVQKSNWEAGNTFTCSVLHEGLHNHHTEKSLSHSPGK light: not shown",relative mFcγRII-binding activity (H237-mIgG1/MRAL-k0 = 1),mouse FcγRII [3],200 fold
"H237-MB701/MRAL-k0 (antibody, mouse IgG1, kappa, copies: 2 + 2) heavy: QVQLQESGPGLVKPSETLSLTCAVSGHSISHDHAWSWVRQPPGEGLEWIGFISYSGITNYNPSLQGRVTISRDNSKNTLYLQMNSLRAEDTAVYYCARSLARTTAMDYWGEGTLVTVSSAKTTPPSVYPLAPGSAAQTNSMVTLGCLVKGYFPEPVTVTWNSGSLSSGVHTFPAVLQSDLYTLSSSVTVPSSTWPSETVTCNVAHPASSTKVDKKIVPRDCGCKPCICEVPEEEFVFIFPPKPKDVLTITLTPKVTCVVVDISKDDPEVQFSWFVDDVEVHTAQTQPREEQFNSTFRSVSELPIMHQDWLNGKEFKCRVNSAAFPAPIEKTISKTKGRPKAPQVYTIPPPKEQMAKDKVSLTCMITDFFPEDITVEWQWNGQPAENYKNTQPIMDTDGSYFVYSKLNVQKSNWEAGNTFTCSVLHEGLHNHHTEKSLSHSPGK light: not shown [H237-MB701/MRAL-k0, listing 1 of 2 here]",binding result,mouse FcγRIII [4],no binding
"MB682 (antibody, copies: 2 + 2) heavy: QVQLQESGPGLVKPSETLSLTCAVSGHSISHDHAWSWVRQPPGEGLEWIGFISYSGITNYNPSLQGRVTISRDNSKNTLYLQMNSLRAEDTAVYYCARSLARTTAMDYWGEGTLVTVSSAKTTPPSVYPLAPGSAAQTNSMVTLGCLVKGYFPEPVTVTWNSGSLSSGVHTFPAVLQSDLYTLSSSVTVPSSTWPSETVTCNVAHPASSTKVDKKIVPRDCGCKPCICEPKEVEDVFIFPPKPKDVLTITLTPKVTCVVVDISKDDPEVQFSWFVDDVEVHTAQTQPREEQFNSTFRSVSELPIMHQDWLNGKEFKCRVNSAAFPAPIEKTISKTKGRPKAPQVYTIPPPKEQMAKDKVSLTCMITDFFPEDITVEWQWNGQPAENYKNTQPIMDTDGSYFVYSKLNVQKSNWEAGNTFTCSVLHEGLHNHHTEKSLSHSPGK light: not shown",relative mFcγRII-binding activity (H237-mIgG1/MRAL-k0 = 1),mouse FcγRII [5],5 to 15 fold
"MB684 (antibody, copies: 2 + 2) heavy: QVQLQESGPGLVKPSETLSLTCAVSGHSISHDHAWSWVRQPPGEGLEWIGFISYSGITNYNPSLQGRVTISRDNSKNTLYLQMNSLRAEDTAVYYCARSLARTTAMDYWGEGTLVTVSSAKTTPPSVYPLAPGSAAQTNSMVTLGCLVKGYFPEPVTVTWNSGSLSSGVHTFPAVLQSDLYTLSSSVTVPSSTWPSETVTCNVAHPASSTKVDKKIVPRDCGCKPCICQPKEVEDVFIFPPKPKDVLTITLTPKVTCVVVDISKDDPEVQFSWFVDDVEVHTAQTQPREEQFNSTFRSVSELPIMHQDWLNGKEFKCRVNSAAFPAPIEKTISKTKGRPKAPQVYTIPPPKEQMAKDKVSLTCMITDFFPEDITVEWQWNGQPAENYKNTQPIMDTDGSYFVYSKLNVQKSNWEAGNTFTCSVLHEGLHNHHTEKSLSHSPGK light: not shown",relative mFcγRII-binding activity (H237-mIgG1/MRAL-k0 = 1),mouse FcγRII [6],5 to 15 fold
"H237-MB697/MRAL-k0 (antibody, mouse IgG1, kappa, copies: 2 + 2) heavy: QVQLQESGPGLVKPSETLSLTCAVSGHSISHDHAWSWVRQPPGEGLEWIGFISYSGITNYNPSLQGRVTISRDNSKNTLYLQMNSLRAEDTAVYYCARSLARTTAMDYWGEGTLVTVSSAKTTPPSVYPLAPGSAAQTNSMVTLGCLVKGYFPEPVTVTWNSGSLSSGVHTFPAVLQSDLYTLSSSVTVPSSTWPSETVTCNVAHPASSTKVDKKIVPRDCGCKPCICEPPEVEFVFIFPPKPKDVLTITLTPKVTCVVVDISKDDPEVQFSWFVDDVEVHTAQTQPREEQFNSTFRSVSELPIMHQDWLNGKEFKCRVNSAAFPAPIEKTISKTKGRPKAPQVYTIPPPKEQMAKDKVSLTCMITDFFPEDITVEWQWNGQPAENYKNTQPIMDTDGSYFVYSKLNVQKSNWEAGNTFTCSVLHEGLHNHHTEKSLSHSPGK light: not shown",relative mFcγRII-binding activity (mIgG1 = 1),[7],0.217 fold
same,binding result,[8],no binding
"H237-MB701/MRAL-k0 (antibody, mouse IgG1, kappa, copies: 2 + 2) heavy: QVQLQESGPGLVKPSETLSLTCAVSGHSISHDHAWSWVRQPPGEGLEWIGFISYSGITNYNPSLQGRVTISRDNSKNTLYLQMNSLRAEDTAVYYCARSLARTTAMDYWGEGTLVTVSSAKTTPPSVYPLAPGSAAQTNSMVTLGCLVKGYFPEPVTVTWNSGSLSSGVHTFPAVLQSDLYTLSSSVTVPSSTWPSETVTCNVAHPASSTKVDKKIVPRDCGCKPCICEVPEEEFVFIFPPKPKDVLTITLTPKVTCVVVDISKDDPEVQFSWFVDDVEVHTAQTQPREEQFNSTFRSVSELPIMHQDWLNGKEFKCRVNSAAFPAPIEKTISKTKGRPKAPQVYTIPPPKEQMAKDKVSLTCMITDFFPEDITVEWQWNGQPAENYKNTQPIMDTDGSYFVYSKLNVQKSNWEAGNTFTCSVLHEGLHNHHTEKSLSHSPGK light: not shown [H237-MB701/MRAL-k0, listing 2 of 2 here]",relative mFcγRII-binding activity (mIgG1 = 1),[7],0.187 fold
same,binding result,[8],no binding
"H237-mF46/L104-mk1 (antibody, mouse IgG1, kappa, the text speaks of it for this form; copies: 2 + 2) heavy: QVQLQESGPGLVKPSETLSLTCAVSGHSISHDHAWSWVRQPPGEGLEWIGFISYSGITNYNPSLQGRVTISRDNSKNTLYLQMNSLRAEDTAVYYCARSLARTTAMDYWGEGTLVTVSSAKTTPPSVYPLAPGSAAQTNSMVTLGCLVKGYFPEPVTVTWNSGSLSSGVHTFPAVLQSDLYTLSSSVTVPSSTWPSETVTCNVAHPASSTKVDKKIVPRDCGCKPCICTVPEVSDVFIFPPKPKDVLTITLTPKVTCVVVDISKDDPEVQFSWFVDDVEVHTAQTQPREEQFNSTFRSVSELPIMHQDWLNGKEFKCRVNSADFPAPIEKTISKTKGRPKAPQVYTIPPPKEQMAKDKVSLTCMITDFFPEDITVEWQWNGQPAENYKNTQPIMDTDGSYFVYSKLNVQKSNWEAGNTFTCSVLHEGLHNHHTEKSLSHSPGK light: DIQMTQSPSSLSASVGDSVTITCQASTDISSHLNWYQQKPGKAPELLIYYGSHLLSGVPSRFSGSGSGTDFTFTISSLEAEDAATYYCGQGNRLPYTFGQGTKVEIERADAAPTVSIFPPSSEQLTSGGASVVCFLNNFYPKDINVKWKIDGSERQNGVLNSWTDQDSKDSTYSMSSTLTLTKDEYERHNSYTCEATHKTSTSPIVKSFNRNEC",binding result,mouse FcγRII [9],binds
same,binding result,mouse FcγRIII [10],binds
